Experiment in all cases: BLI
Background: In BLI a coated tip is dipped into the sample, and binding shifts an interference pattern.

The target in experiment [1] is VIC16 REFORMab KWES (printed K236W/E333S) (mouse | human).
Experiment [2] concerns the target VIC16 REFORMab SDIEALGA (G236A/S239D/A330L/I332E) (mouse | human).
The target in experiment [3] is VIC16 REFORMab EFTEA (G236A/S267E/H268F/S324T/I332E) (mouse | human).
Experiment [4] concerns the target VIC16 REFORMab LALA (L234A/L235A) (mouse | human).

For orientation: Kd means the concentration at which binding is half-saturated. Lower therefore signals tighter binding.

B1: recombinant murine FcγRIV (receptor)
chain: GLQKAVVNLDPKWVRVLEEDSVTLRCQGTFSPEDNSIKWFHNESLIPHQDANYVIQSARVKDSGMYRCQTALSTISDPVQLEVHMGWLLLQTTKWLFQEGDPIHLRCHSWQNRPVRKVTYLQNGKGKKYFHENSELLIPKATHNDSGSYFCRGLIGHNNKSSASFRISLGDPGSPSMFPPWHQ
modifications: soluble ectodomain by convention (UniProt topology); tag not stated
Turning to B1, the Kd in experiment [1] was determined as 160 nM; in experiment [2] it was 1 nM; in experiment [3], 120 nM.

B2: recombinant murine FcγRIIb (receptor)
chain: THDLPKAVVKLEPPWIQVLKEDTVTLTCEGTHNPGNSSTQWFHNGRSIRSQVQASYTFKATVNDSGEYRCQMEQTRLSDPVDLGVISDWLLLQTPQLVFLEGETITLRCHSWRNKLLNRISFFHNEKSVRYHHYSSNFSIPKANHSHSGDYYCKGSLGRTLHQSKPVTITVQGPKSSRSLP
modifications: soluble ectodomain by convention (UniProt topology); tag not stated
As to B2, the values for the Kd in experiment [1], in experiment [2] and in experiment [3] were 46000 nM, 130 nM and 490 nM, respectively.

B3: recombinant murine FcγRIII (receptor)
chain: ALPKAVVKLDPPWIQVLKEDMVTLMCEGTHNPGNSSTQWFHNGRSIRSQVQASYTFKATVNDSGEYRCQMEQTRLSDPVDLGVISDWLLLQTPQRVFLEGETITLRCHSWRNKLLNRISFFHNEKSVRYHHYKSNFSIPKANHSHSGDYYCKGSLGSTQHQSKPVTITVQDPATTSSISLVWYHT
modifications: soluble ectodomain by convention (UniProt topology); tag not stated
As for B3, the Kd is 20 nM in experiment [1], 10 nM in experiment [2], 820000 nM in experiment [4] and 1100 nM in experiment [3].

Values taken from publication PMC8111768 (Immunity, 2021).
